B2: C-terminally Halo-tagged VASP (VASP-Halo) (natural protein, human, UniProt P50552 1-380, looked up)
chain: MSETVICSSRATVMLYDDGNKRWLPAGTGPQAFSRVQIYHNPTANSFRVVGRKMQPDQQVVINCAIVRGVKYNQATPNFHQWRDARQVWGLNFGSKEDAAQFAAGMASALEALEGGGPPPPPALPTWSVPNGPSPEEVEQQKRQQPGPSEHIERRVSNAGGPPAPPAGGPPPPPGPPPPPGPPPPPGLPPSGVPAAAHGAGGGPPPAPPLPAAQGPGGGGAGAPGLAAAIAGAKLRKVSKQEEASGGPTAPKAESGRSGGGGLMEEMNAMLARRRKATQVGEKTPKDESANQEEPEARVPAQSESVRRPWEKNSTTLPRMKSSSSVTTSETQPCTPSSSDYSDLQRVKQELLEEVKKELQKVKEEIIEAFVQELRKRGSP
modifications: Janelia Fluor 549 Halo-ligand conjugated to the Halo tag
notes: VASP (vasodilator-stimulated phosphoprotein), human; also called VASP^WT; VASP-Halo:JF549; source: E. coli Rosetta2(DE3), purified (Ni-NTA, StrepTrap XT, 3C protease, SEC); not shown: Strep-Tag II, N-terminal, cleaved; Halo, C-terminal, kept; 6xHis-Tag, C-terminal, cleaved
B3: C-terminally Halo-tagged full-length zyxin (zyxin-Halo) (natural protein, human, UniProt Q15942 1-572, looked up)
chain: MAAPRPSPAISVSVSAPAFYAPQKKFGPVVAPKPKVNPFRPGDSEPPPAPGAQRAQMGRVGEIPPPPPEDFPLPPPPLAGDGDDAEGALGGAFPPPPPPIEESFPPAPLEEEIFPSPPPPPEEEGGPEAPIPPPPQPREKVSSIDLEIDSLSSLLDDMTKNDPFKARVSSGYVPPPVATPFSSKSSTKPAAGGTAPLPPWKSPSSSQPLPQVPAPAQSQTQFHVQPQPQPKPQVQLHVQSQTQPVSLANTQPRGPPASSPAPAPKFSPVTPKFTPVASKFSPGAPGGSGSQPNQKLGHPEALSAGTGSPQPPSFTYAQQREKPRVQEKQHPVPPPAQNQNQVRSPGAPGPLTLKEVEELEQLTQQLMQDMEHPQRQNVAVNELCGRCHQPLARAQPAVRALGQLFHIACFTCHQCAQQLQGQQFYSLEGAPYCEGCYTDTLEKCNTCGEPITDRMLRATGKAYHPHCFTCVVCARPLEGTSFIVDQANRPHCVPDYHKQYAPRCSVCSEPIMPEPGRDETVRVVALDKNFHMKCYKCEDCGKPLSIEADDNGCFPLDGHVLCRKCHTARAQT
modifications: Janelia Fluor 646 Halo-ligand conjugated to the Halo tag
notes: zyxin, human, full length; pCAG vector with a C-terminal 3C protease cleavage site and eGFP tag; eGFP removed with 3C protease on the resin; also called zyxin^WT; zyxin-Halo:JF646; source: HEK293F, transfected, purified (anti-GFP nanobody resin, 3C protease, Mono Q, SEC); not shown: Halo, C-terminal, kept; eGFP, C-terminal, cleaved

Holding throughout (settings): both partners purified
For experiment [1], the target named is B2. As to the kind of experiment: droplet co-partitioning (iSIM fluorescence microscopy); zyxin construct, VASP and ɑ-actinin mixed together in MBOS with 3% PEG 8K, room temperature; small clusters also without PEG 8K at native cellular concentrations.
Experiment [2] addresses B3. Described as above.
The target in experiment [3] is T1, C-terminally Halo-tagged ɑ-actinin-1 (ɑ-actinin-Halo) (human, UniProt P12814 1-892, Janelia Fluor 549 Halo-ligand (TIRF assays) or Alexa Fluor 488 Halo-ligand (droplet assays) conjugated to the Halo tag; unlabeled in the bundle assays).
T1 construct: ɑ-actinin-1, human; also called ɑ-actinin^WT; ɑ-actinin-Halo:JF549; source: E. coli Rosetta2(DE3), purified (Ni-NTA, TEV protease, HiTrap Q HP, SEC); not shown: 6xHis-Tag, N-terminal, cleaved; Halo, C-terminal, kept
T1 sequence (P12814 whole entry): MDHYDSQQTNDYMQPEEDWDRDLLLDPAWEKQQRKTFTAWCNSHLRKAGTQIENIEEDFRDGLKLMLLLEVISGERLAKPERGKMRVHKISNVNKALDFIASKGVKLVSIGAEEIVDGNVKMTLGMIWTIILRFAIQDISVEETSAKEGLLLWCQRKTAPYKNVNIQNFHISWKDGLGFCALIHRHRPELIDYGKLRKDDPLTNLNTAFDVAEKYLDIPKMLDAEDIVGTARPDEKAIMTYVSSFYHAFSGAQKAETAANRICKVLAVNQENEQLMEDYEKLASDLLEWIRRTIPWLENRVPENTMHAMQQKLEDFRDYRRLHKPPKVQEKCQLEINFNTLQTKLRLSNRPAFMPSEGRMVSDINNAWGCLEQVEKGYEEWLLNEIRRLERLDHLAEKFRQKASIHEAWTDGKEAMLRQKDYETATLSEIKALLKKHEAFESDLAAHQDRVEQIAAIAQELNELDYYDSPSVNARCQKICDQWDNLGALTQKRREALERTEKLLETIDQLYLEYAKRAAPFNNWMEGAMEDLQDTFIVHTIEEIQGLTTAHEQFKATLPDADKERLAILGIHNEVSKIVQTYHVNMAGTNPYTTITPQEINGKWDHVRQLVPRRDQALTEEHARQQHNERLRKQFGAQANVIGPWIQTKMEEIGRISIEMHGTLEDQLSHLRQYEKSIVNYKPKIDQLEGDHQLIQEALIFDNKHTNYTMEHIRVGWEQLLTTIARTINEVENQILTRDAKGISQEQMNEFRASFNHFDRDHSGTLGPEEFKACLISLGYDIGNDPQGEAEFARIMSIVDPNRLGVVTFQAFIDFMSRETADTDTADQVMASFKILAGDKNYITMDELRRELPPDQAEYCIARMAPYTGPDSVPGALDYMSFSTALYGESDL
As to the kind of experiment: TIRF microscopy, force reconstitution assay with purified proteins; immobilised myosins, 30% ATTO 488-labeled F-actin, 25 nM (or 250 nM) zyxin-Halo:JF646 and 50 nM ɑ-actinin-Halo:JF549 in MBOS, +ATP (myosin forces); room temperature.

The values that follow come from doi:10.1101/2024.05.17.594765, “Force-activated zyxin assemblies coordinate actin nucleation and crosslinking to orchestrate stress fiber repair” (bioRxiv, 2024).

B1: minimal zyxin construct with the N-terminal binding motifs (amino acids 1–160), Halo-tagged (domain or fragment, human, UniProt Q15942 1-160, looked up)
chain: MAAPRPSPAISVSVSAPAFYAPQKKFGPVVAPKPKVNPFRPGDSEPPPAPGAQRAQMGRVGEIPPPPPEDFPLPPPPLAGDGDDAEGALGGAFPPPPPPIEESFPPAPLEEEIFPSPPPPPEEEGGPEAPIPPPPQPREKVSSIDLEIDSLSSLLDDMTK
modifications: Janelia Fluor 646 Halo-ligand conjugated to the Halo tag
notes: zyxin, human, amino acids 1–160; also called zyxin^N-term; source: HEK293F, transfected, purified (anti-GFP nanobody resin, 3C protease, Mono Q, SEC); not shown: Halo, C-terminal, kept; eGFP, C-terminal, cleaved
Take B1: in experiment [1], the binding result was “binds”.

For B2, in experiment [2], the binding result is “binds”.

As to B3, in experiment [3], the binding result was “binds”.
